Data: patent publication EP2649983A1, “Compounds which inhibit neuronal exocytosis (II)” (Lipotec, S.A., priority 2012, dated 2013)
Non-standard residues stand in square brackets, D forms with d. *: point of attachment. Met(O2) = CS(=O)(=O)CC[C@H](N)C(=O)O; Palmitoyl = CCCCCCCCCCCCCCCC(=O)*; NHhexadecyl = CCCCCCCCCCCCCCCCN*; Met(O) = CS(=O)CC[C@H](N)C(=O)O; Myristoyl = CCCCCCCCCCCCCC(=O)*

How the values were obtained:
[1] = biological target: SNARE complex (VAMP, syntaxin and SNAP-25 bound to GST) (UniProt P60880); assay: competition ELISA: VAMP on plate, SNAP-25-GST + syntaxin, anti-GST detection; compound at 2.5 mM
[2] = biological target: SNARE complex (VAMP, syntaxin and SNAP-25 bound to GST) (UniProt P60880); assay: competition ELISA: VAMP on plate, SNAP-25-GST + syntaxin, anti-GST detection; compound at 0.5 mM
[3] = biological target: SNARE complex (VAMP, syntaxin and SNAP-25) (UniProt P60880); assay: SDS-PAGE of SNARE complex: VAMP + syntaxin + compound, then SNAP-25; image analysis; compound at 5 mM
[4] = biological target: SNARE complex (VAMP, syntaxin and SNAP-25) (UniProt P60880); assay: SDS-PAGE of SNARE complex: VAMP + syntaxin + compound, then SNAP-25; image analysis; compound at 1 mM

Sequence of SNARE complex (VAMP, syntaxin and SNAP-25 bound to GST) (P60880 whole entry, one chain of several): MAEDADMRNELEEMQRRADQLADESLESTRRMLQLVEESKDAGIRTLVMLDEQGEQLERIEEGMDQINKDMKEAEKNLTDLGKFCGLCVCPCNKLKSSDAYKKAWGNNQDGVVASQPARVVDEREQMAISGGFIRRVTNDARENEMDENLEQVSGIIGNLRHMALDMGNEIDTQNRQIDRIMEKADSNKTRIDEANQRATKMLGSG
Sequence of SNARE complex (VAMP, syntaxin and SNAP-25) (P60880 whole entry, one chain of several): as above

| % inhibition formation SNARE complex [1] [%] | % inhibition formation SNARE complex [2] [%] | % inhibition formation SNARE complex [3] [%] | % inhibition formation SNARE complex [4] [%] | Binder |
| --- | --- | --- | --- | --- |
| 51 | 19 | – | – | Palmitoyl-DHFLNWM-NH2 [Palm-SEQ ID NO:34-NH2] |
| 63 | 33 | 100 | 59 | Ac-EHLKQWM-NH2 [Ac-SEQ ID NO:1-NH2] |
| 44 | 11 | – | – | Ac-EHLKKWM-NH2 [Ac-SEQ ID NO:8-NH2] |
| 19 | – | – | – | Ac-NHLKHWM-NH2 [Ac-SEQ ID NO:32-NH2] |
| 26 | 8 | 89 | 44 | Ac-DHFLDW[Met(O2)]-NH2 [Ac-SEQ ID NO:61-NH2] |
| 44 | 36 | 66 | 17 | Palmitoyl-DHFQQRM-NH2 [Palm-SEQ ID NO:24-NH2] |
| 58 | 30 | – | – | H-EHLKQWM-NH2 [H-SEQ ID NO:1-NH2] |
| 21 | 18 | 74 | 22 | Palmitoyl-NHFLNWM-NH2 [Palm-SEQ ID NO:15-NH2] |
| 51 | 20 | – | – | Palmitoyl-QHLHNVM-NH2 [Palm-SEQ ID NO:3-NH2] |
| 71 | 24 | – | – | Ac-EHFLQWM-NH2 [Ac-SEQ ID NO:30-NH2] |
| 64 | 16 | 91 | 40 | Ac-DHFLDW[Met(O)]-NH2 [Ac-SEQ ID NO:56-NH2] |
| 20 | – | – | – | Ac-RHFLQWM-NH2 [Ac-SEQ ID NO:13-NH2] |
| 71 | 40 | 100 | 83 | Ac-DHFLDWM-NH2 [Ac-SEQ ID NO:25-NH2] |
| 67 | 43 | 100 | 83 | Ac-EDLKRWM-NH2 [Ac-SEQ ID NO:14-NH2] |
| 59 | 29 | – | – | Ac-EHLKQWM-OH [Ac-SEQ ID NO:1-OH] |
| 60 | 10 | – | – | Ac-NDLKDWM-NH2 [Ac-SEQ ID NO:23-NH2] |
| 64 | 31 | – | – | Ac-QHLHNVM-NH2 [Ac-SEQ ID NO:3-NH2] |
| 19 | – | 76 | 23 | Myristoyl-NHFLNWM-NH2 [Myr-SEQ ID NO:15-NH2] |
| 85 | 27 | 59 | 14 | Ac-DHFLNWM-NH2 [Ac-SEQ ID NO:34-NH2] |
| 53 | 24 | 85 | 36 | Palmitoyl-DHFLDWM-NH2 [Palm-SEQ ID NO:25-NH2] |
| 35 | 11 | 85 | 43 | Ac-EDLKRWM-NHhexadecyl [Ac-SEQ ID NO:14-NH-(CH2)15-CH3] |
| 14 | – | – | – | Ac-QHLKNWM-NH2 [Ac-SEQ ID NO:27-NH2] |
| 42 | 18 | 93 | 41 | Palmitoyl-EDLKRWM-NH2 [Palm-SEQ ID NO:14-NH2] |
| 47 | 21 | 72 | 26 | Palmitoyl-EHLKQWM-NH2 [Palm-SEQ ID NO:1-NH2] |
| 71 | 20 | – | – | Ac-QHLKEWM-NH2 [Ac-SEQ ID NO:12-NH2] |
| 55 | 41 | 100 | 48 | Ac-DHFQQRM-NH2 [Ac-SEQ ID NO:24-NH2] |
| 64 | 26 | 80 | 37 | Ac-QDFLHWM-NH2 [Ac-SEQ ID NO:2-NH2] |
| 59 | 26 | – | – | Ac-NHLKNWM-NH2 [Ac-SEQ ID NO:31-NH2] |
| 72 | 18 | – | – | Ac-DHLKKWM-NH2 [Ac-SEQ ID NO:22-NH2] |
| 42 | 48 | 100 | 50 | Ac-NHFLNWM-NH2 [Ac-SEQ ID NO:15-NH2] |
